Assay results: patent US20230374148A1, “BINDING MOLECULES THAT MULTIMERISE CD45” (UCB BIOPHARMA SRL, priority 2020, published 2023)

B1: 4133-6294 BYbe: anti-CD45 BYbe (Fab-scFv): 4133 Fab HC-G4S linker-6294 scFv heavy chain paired with 4133 light chain (antibody)
heavy: QEQLVESGGGLVQPEGSLTLTCTASGFSFSGNYYMCWVRQAPGKGLEWIGCLYTGSSGSTYYASWAKGRFTISKTSSTTVTLQMTSLTAADTATYFCARDLGYEIDGYGGLWGQGTLVTVSSGQPKAPSVFPLAPCCGDTPSSTVTLGCLVKGYLPEPVTVTWNSGTLTNGVRTFPSVRQSSGLYSLSSVVSVTSSSQPVTCNVAHPATNTKVDKTVAPSTCSKPGGGGSGGGGSEVQLVESGAELARPGASVKMSCKASGYTFTSYTMHWVKQRPGQCLEWIGYINPSSGYTEYNQKFKDKTTLTADKSSSTAYLQLSSLTSEDSAVYYCARVGDGFYPSWLAYWGQGTLVTVSSGGGGSGGGGSGGGGSGGGGSDIQMTQSPKFLLVSAGDRVTITCKASQSVRNDVAWYQQKPGQSPKLLIFYASKRYTGVPDRFTGSGYGTDFTFTISTVQAEDLAVYFCQQDYSSPTTFGCGTKLEIK
light: AQVLTQTPSPVSAVVGGTVSISCQASQSVYNNNNLSWYQQKPGQPPKLLIYDASKLASGVPSRFKGSGSGTQFTLTISGVQCDDAATYYCLGGYYSSGWYFAFGGGTKVVVKRTPVAPTVLIFPPAADQVATGTVTIVCVANKYFPDVTVTWEVDGTTQTTGIENSKTPQNSADCTYNLSSTLTLTSTQYNSHKEYTCKVTQGTTSVVQSFNRGDC

System: Human whole blood
Assay: Cytokine release in whole blood at 24 hrs, MSD assay
Assay type: cell-based
Experimental: Human whole blood (Lithium heparin tubes) was taken from one donor (HTA #031219-06) at UCB Pharma Slough, UK according to approved ethical sample collection protocol.
In a Greiner 96-well non-binding microplate, Fab-X and Fab-Y combination 6294-X/4133-Y was added to PBS to give a Fab-KD-Fab concentration of 2000 nM. Similarly, stocks of 4133-6294 BYbe and NegCtrl BYbe were prepared in PBS at 2000 nM. The microplate was incubated for 1 hr at 37° C., 5% CO2. Following the incubation, Fab-KD-Fab and BYbe reagents were then serially diluted in PBS 1 in 5, seven times to produce to form an 8-point dose curve.
12.5 μl of Fab-KD-Fab or BYbe dilution was transferred into Corning Costar 96-well, cell culture treated, U-shaped-bottom microplate (cat no. 07-200-95) and 237.5 μl of whole blood added to each well. Final well concentrations of Fab-KD-Fab or BYbes were 100-0.00128 nM. […]
Measurement of cytokines was carried out using the V-PLEX Human Proinflammatory Panel I (4-Plex) (IFN-γ, IL-1β, IL-6, TNF-α, cat no. K15052D, Meso Scale Discovery) according to manufacturer's instructions. […] The plates were washed as before, and 150 μl of read buffer (diluted 1 in 2 in dH2O) was added to each well. The plates were then analysed on a SECTOR Imager 6000 (Meso Scale Discovery).

Row | Molecule | levels of IL-1β (Campath 10 μg/ml, other reagents 100-0.00128 nM) | induction of inflammatory cytokines (IFN-γ, IL-6, TNF-α) (100-0.00128 nM, compared with PBS- and NegCtrl BYbe-treated wells)
1 | Campath: anti-CD52, clinical grade, indicated by FDA for B-cell Chronic Lymphocytic Leukaemia; positive control [reference compound] | marked level | 
2 | B1 |  | little or no induction
